Positions count from the first letter of the chain named.
B1: toripalimab Fab H.V114A (Fab, V domains shown)
VH: QGQLVQSGAEVKKPGASVKVSCKASGYTFTDYEMHWVRQAPIHGLEWIGVIESETGGTAYNQKFKGRVTITADKSTSTAYMELSSLRSEDTAVYYCAREGITTVATTYYWYFDAWGQGTTVTVSS
VL: DVVMTQSPLSLPVTLGQPASISCRSSQSIVHSNGNTYLEWYLQKPGQSPQLLIYKVSNRFSGVPDRFSGSGSGTDFTLKISRVEAEDVGVYYCFQGSHVPLTFGQGTKLEIK
notes: heavy chain of Sm3 with this change; numbers count from the chain's first residue; as the light chain of Sm3; source: Brevibacillus, culture supernatant (ammonium sulfate precipitate); not shown: 6xHis, C-terminal, kept; 6xHN, C-terminal, kept
B2: toripalimab Fab H.F112Y (Fab, V domains shown)
VH: B1 VH with F112Y, A114V
VL: B1 VL
notes: as for B1
B3: toripalimab Fab L.S28Y (Fab, V domains shown)
VH: B1 VH with A114V
VL: B1 VL with S28Y
notes: as the heavy chain of Sm3; light chain of Sm3 with this change; numbers count from the chain's first residue; source: Brevibacillus, culture supernatant (ammonium sulfate precipitate); not shown: 6xHis, C-terminal, kept; 6xHN, C-terminal, kept
B4: toripalimab Fab L.I29Y (Fab, V domains shown)
VH: B1 VH with A114V
VL: B1 VL with I29Y
notes: as for B3
B5: toripalimab Fab L.R24A (Fab, V domains shown)
VH: B1 VH with A114V
VL: B1 VL with R24A
notes: as for B3
B6: toripalimab Fab H.W110Y (Fab, V domains shown)
VH: B1 VH with W110Y, A114V
VL: B1 VL
notes: as for B1
B7: toripalimab Fab L.S28A (Fab, V domains shown)
VH: B1 VH with A114V
VL: B1 VL with S28A
notes: as for B3
B8: toripalimab Fab L.S26Y (Fab, V domains shown)
VH: B1 VH with A114V
VL: B1 VL with S26Y
notes: as for B3
B9: toripalimab Fab H.T107Y (Fab, V domains shown)
VH: B1 VH with T107Y, A114V
VL: B1 VL
notes: as for B1
B10: toripalimab Fab L.S25Y (Fab, V domains shown)
VH: B1 VH with A114V
VL: B1 VL with S25Y
notes: as for B3
B11: toripalimab Fab L.Q27A (Fab, V domains shown)
VH: B1 VH with A114V
VL: B1 VL with Q27A
notes: as for B3
B12: toripalimab Fab L.V30Y (Fab, V domains shown)
VH: B1 VH with A114V
VL: B1 VL with V30Y
notes: as for B3
B13: toripalimab Fab H.M34Y (Fab, V domains shown)
VH: B1 VH with M34Y, A114V
VL: B1 VL
notes: as for B1

target: T1, human programmed cell death protein 1 (hPD-1) C93S (aa 24-167) (Homo sapiens, UniProt Q15116, C93S); assay: SPR; Carterra LSA; Fab from the ammonium sulfate precipitate of the culture supernatant immobilised on a NiHC200M chip; hPD-1 (1-1024 nM) or mPD-1-Fc (4-1024 nM) as analyte, fourfold dilution series, no regeneration; HBS-EP pH 7.4, 25 °C; medians over the spots of a construct, KD = koff/kon; settings: one partner purified
T1 construct: made as a fusion with a TEV site and human Fc; the Fc was cut off with TEV protease; source: Expi293F, purified (Protein A, TEV cleavage of Fc, SEC; monomer fractions); not shown: Fc (human), C-terminal, cleaved
Outline: (§1)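 Human PD-1 (1–1024 nM) or mouse PD-1-Fc (4–1024 nM), in fourfold series, was flowed without regeneration over Fabs captured in duplicate on a NiHC200M chip (Carterra LSA, 25 °C), using 10 min association and 5 min dissociation. The Fabs had been recovered from Brevibacillus culture supernatants by ammonium sulfate precipitation and redissolved in HBS-EP. For binding constants, KD was defined as koff/kon from per-construct medians, with rates fitted by the kdka model under slow- or fast-dissociation settings (best fit) and unconfirmed binders set to kon 10^3 […] and koff 10^−2 s^−1.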

T1 sequence (Q15116 24-167 C93S): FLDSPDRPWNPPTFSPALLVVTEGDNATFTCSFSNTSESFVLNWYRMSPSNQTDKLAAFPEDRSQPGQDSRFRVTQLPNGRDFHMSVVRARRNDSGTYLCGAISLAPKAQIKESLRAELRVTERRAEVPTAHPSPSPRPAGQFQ

Point of comparison: B12, Kd 0.91 nM. Against it:
- B1 — not separable, < 1.5 nM
- B2 — lower, < 0.731 nM
- B3 — lower, < 0.792 nM
- B4 — 33-fold higher, 30.4 nM
- B5 — lower, < 0.696 nM
- B6 — not separable, < 1.51 nM
- B7 — lower, < 0.632 nM
- B8 — lower, < 0.573 nM
- B9 — lower, < 0.315 nM
- B10 — 2.1-fold higher, 1.93 nM
- B11 — lower, < 0.831 nM
- B13 — lower, < 0.414 nM

Point of comparison: B4, koff 0.000378 s⁻¹. Against it:
- B1 — lower, < 1e-05 s⁻¹
- B2 — lower, < 1e-05 s⁻¹
- B3 — lower, < 1e-05 s⁻¹
- B5 — lower, < 1e-05 s⁻¹
- B6 — lower, < 1e-05 s⁻¹
- B7 — lower, < 1e-05 s⁻¹
- B8 — lower, < 1e-05 s⁻¹
- B9 — lower, < 1e-05 s⁻¹
- B10 — 32-fold lower, 1.18e-05 s⁻¹
- B11 — lower, < 1e-05 s⁻¹
- B12 — 24-fold lower, 1.6e-05 s⁻¹
- B13 — lower, < 1e-05 s⁻¹

Point of comparison: B3, kon 12600 M⁻¹ s⁻¹. Against it:
- B1 — 1.9-fold lower, 6670 M⁻¹ s⁻¹
- B2 — within 1.5-fold, 13700 M⁻¹ s⁻¹
- B4 — within 1.5-fold, 12400 M⁻¹ s⁻¹
- B5 — within 1.5-fold, 14400 M⁻¹ s⁻¹
- B6 — 1.9-fold lower, 6610 M⁻¹ s⁻¹
- B7 — within 1.5-fold, 15800 M⁻¹ s⁻¹
- B8 — within 1.5-fold, 17500 M⁻¹ s⁻¹
- B9 — 2.5-fold higher, 31700 M⁻¹ s⁻¹
- B10 — 2.1-fold lower, 6090 M⁻¹ s⁻¹
- B11 — within 1.5-fold, 12000 M⁻¹ s⁻¹
- B12 — within 1.5-fold, 17600 M⁻¹ s⁻¹
- B13 — 1.9-fold higher, 24200 M⁻¹ s⁻¹

target: T2, mouse programmed cell death protein 1 Fc fusion protein (mPD-1-Fc), mPD-1 C60S (aa 25-167) (Mus musculus, UniProt Q02242, stabilised); assay: as above; settings: one partner purified
T2 construct: not cleaved; source: Expi293F, purified (Protein A, SEC; dimeric fraction); not shown: Fc (human), C-terminal, kept
Outline: as §1

Point of comparison: B13, Kd 164 nM. Against it:
- B1 — within 1.5-fold, 201 nM
- B2 — 2.7-fold lower, 59.7 nM
- B3 — within 1.5-fold, 137 nM
- B4 — 2-fold lower, 80.6 nM
- B5 — within 1.5-fold, 198 nM
- B6 — within 1.5-fold, 166 nM
- B7 — 1.7-fold lower, 96.3 nM
- B8 — within 1.5-fold, 152 nM
- B9 — within 1.5-fold, 137 nM
- B10 — within 1.5-fold, 125 nM
- B11 — within 1.5-fold, 219 nM
- B12 — within 1.5-fold, 173 nM

Point of comparison: B1, koff 0.00764 s⁻¹. Against it:
- B2 — 2.5-fold lower, 0.00308 s⁻¹
- B3 — 1.7-fold lower, 0.00438 s⁻¹
- B4 — within 1.5-fold, 0.00575 s⁻¹
- B5 — within 1.5-fold, 0.0079 s⁻¹
- B6 — within 1.5-fold, 0.00571 s⁻¹
- B7 — 2.5-fold lower, 0.00303 s⁻¹
- B8 — within 1.5-fold, 0.00675 s⁻¹
- B9 — 1.8-fold lower, 0.00432 s⁻¹
- B10 — 1.9-fold lower, 0.00412 s⁻¹
- B11 — within 1.5-fold, 0.00876 s⁻¹
- B12 — within 1.5-fold, 0.00719 s⁻¹
- B13 — within 1.5-fold, 0.00793 s⁻¹

Point of comparison: B11, kon 40100 M⁻¹ s⁻¹. Against it:
- B1 — within 1.5-fold, 38100 M⁻¹ s⁻¹
- B2 — within 1.5-fold, 51700 M⁻¹ s⁻¹
- B3 — within 1.5-fold, 31900 M⁻¹ s⁻¹
- B4 — 1.8-fold higher, 71400 M⁻¹ s⁻¹
- B5 — within 1.5-fold, 39900 M⁻¹ s⁻¹
- B6 — within 1.5-fold, 34500 M⁻¹ s⁻¹
- B7 — within 1.5-fold, 31400 M⁻¹ s⁻¹
- B8 — within 1.5-fold, 44500 M⁻¹ s⁻¹
- B9 — within 1.5-fold, 31600 M⁻¹ s⁻¹
- B10 — within 1.5-fold, 32900 M⁻¹ s⁻¹
- B12 — within 1.5-fold, 41500 M⁻¹ s⁻¹
- B13 — within 1.5-fold, 48500 M⁻¹ s⁻¹
